Target: the molecule itself
Assay: SEC-MALS; size exclusion chromatography coupled with multiangle light scattering on FlcD without a His6-tag

B1: FlcD without a His6-tag (FlcD_(tagless)) (enzyme, Pseudomonas aeruginosa)
chain: MNTRNFSLPQLQNLPIEEARIVADALAVHATSRQIDSAASKLAALAEAGLKGDRQAYAAYQQLLYVLSLSDDVATAQTRRWLARAIYRVEERFMPAADLSRALSEEDFQKRLEQEIAAQSRERHPMSQYVFSGSASRAQLQVFLRHQWFRTFRLYRDAADLLVNLTDVDEAAALARYLYGELGEEDEKGSHPRLLAKLLEAIGLEADFQAVSTMPEEIAYLNNRARAFRHAEVGWGLAVFYITELVVPGNHEKLYRALLQAGLSEDQAEYYKVHISLVPPRAKREWQLIARRIPDVQFQNAFLTSLSQHFRVERAYYDAIWEEMQSVK
notes: FlcD, heme oxygenase-like domain-containing oxidase (HDO) of Pseudomonas aeruginosa, without a His6-tag; see the Supporting Information PDF
For B1, the “stoichiometry N” value was 2.
